Assay results from PMC12473205, “Characterization of the Soybean GPAT Gene Family Identifies GmGPAT1 as a Key Protein in Salt Stress Tolerance” (Plants, 2025).

Substrate: O=P(O)(O)OC[C@H](O)CO
Test: purified protein
Format: biochemical, Glycine max
Details: 0.1 M phosphate buffer pH 7.2, acyl-CoA co-substrate not named, methods text mentions membrane protein, conclusions print 36.5 mmol L^-1

B1: GmGPAT1 (Glycine max) (protein)
chain: MSTTGSSAYHCVAHLPNNKTMFMLSTPPTTTFFATPRVLPFLSSKLSSSSSSSTASSSPCCSSITPKVKSKDNNNCYLVSAKHSPANMSASVSSRTFLNARNEQELLAGIRKEVEAGSLPANVAAGMEEVYNNYKSAVIQSGDPKSKEIVLSNMIALLDRIFLDVTDPFVFQPHHKAKREPFDYYVFGQNYIRPLVDFKNSYVGNMPLFIEMEEKLKQGHNIILMSNHQTEADPAIIALLLETRLPYIAENMTYVAGDRVITDPLSKPFSIGRNLICVYSKKHMLDDPALVEMKRNANIRALKEMAMLLRSGSQIVWIAPSGGRDRPDPHTGEWAPAPFDTSSVDNMRRLVEHSGPPGHVYPLAILCHDIMPPPLKVEKEIGEKRIISFHGTGISVAPALSFSETTATSENPEKAKEVFTKALYDSVTEQYNVLKSAIHGKKGFEASTPVVSLSQSWK
In the case of B1, the Km is reported as 36.47 mM.
